These results are taken from article PMC6973309.

Test [1] has as its target human CX3CR1 (human) (UniProt P49238).
Test [2] shares this target. Briefly: flow cytometry on cells.
For test [3] the target is unchanged. The test can be described thus: flow cytometry on cells. This is another data set of the same source. (In flow cytometry, cells or beads pass a laser one at a time.)

Where two headings read alike, the source gives them in different places.

human CX3CR1 (human), sequence (P49238 whole entry): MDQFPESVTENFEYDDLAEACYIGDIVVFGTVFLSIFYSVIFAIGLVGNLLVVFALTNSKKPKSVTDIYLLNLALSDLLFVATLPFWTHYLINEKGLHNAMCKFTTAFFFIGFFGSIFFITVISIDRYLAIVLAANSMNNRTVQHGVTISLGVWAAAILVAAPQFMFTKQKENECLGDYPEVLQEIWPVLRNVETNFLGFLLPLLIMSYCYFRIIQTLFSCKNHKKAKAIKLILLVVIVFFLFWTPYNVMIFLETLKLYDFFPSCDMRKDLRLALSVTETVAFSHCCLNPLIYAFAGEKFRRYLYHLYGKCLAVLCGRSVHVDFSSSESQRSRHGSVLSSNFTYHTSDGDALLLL

What is called IC50 is the point on the concentration scale where inhibition reaches its midpoint. High values mean weaker potency, low ones greater potency. In test [1], BI 655088 (VHH) gave a Chemotaxis IC50 (blocks m3 with m1) of 2.7 nM and a Ligand Internalization IC50 (blocks m3 with m1) of 0.33 nM. The IC50 in test [2] was 1.6 nM. This substance displayed an IC50 in test [3] of 0.4 nM.
Turning to BI 655089 (Fc fusion), in test [1], the Chemotaxis IC50 (blocks m3 with m1) is 3 nM and the Ligand Internalization IC50 (blocks m3 with m1) stood at 0.37 nM. Besides, the IC50 in test [3] was 0.7 nM.
